Test results published in patent publication US20210403601A1 (FAPON BIOTECH, published 2021).
Where a chain is given by its changes, count along the chain named.

B1: Anti-Taq 2C7 recombinant antibody (WT) (antibody, mouse IgG1, kappa, V domains shown)
VH: QVQLQQPGAELVKPGASVRLSCQTSVDTFSTYYLYWVKQRPGEGLEWIGGVNPTSNPVFDEKFKSKATLTVDTSSSTAYMQLSSLTSVDSAVYYCTRSILRRGYYPDYWGQGTALTVSS
VL: DIQMTQTTSSLSASLGDRVTISCRGSQDIQNYVNWYQQKPDGTIKLLIYFTSRLQSGIPSRFSGSGSGTDYSLTIANLEQEDIATYFCQQDDTIPVTWGAGTKVELKR
notes: Mouse antibody expressed in CHO cells; also called WT antibody; antibody of sample 1
B2: Mutation 1 (antibody, V domains shown)
VH: B1 VH with L34I, D60N, P106F
VL: B1 VL with G25A, F50Y, W98F
notes: also called mutation 1 antibody
B3: Mutation 2 (antibody, V domains shown)
VH: B1 VH with L34I, D60N
VL: B1 VL with W98F
B4: Mutation 3 (antibody)
heavy: QVQLQQPGAELVKPGASVRLSCQTSVDTFSTYYAYWVKQRPGEGLEWIGGVNPTSNPVFDEKFKSKATLTVDTSSSTAYMQLSSLTSVDSAVYYCTRSILRRGYYQDYWGQGTALTVSSAKTTPPSVYPLAPGSAAQTNSMVTLGCLVKGYFPEPVTVTWNSGSLSSGVHTFPAVLQSDLYTLSSSVTVPSSTWPSETVTCNVAHPASSTKVDKKIVPRDCGCKPCICTVPEVSSVFIFPPKPKDVLTITLTPKVTCVVVDISKDDPEVQFSWFVDDVEVHTAQTQPREEQFNSTFRSVSELPIMHQDWLNGKEFKCRVNSAAFPAPIEKTISKTKGRPKAPQVYTIPPPKEQMAKDKVSLTCMITDFFPEDITVEWQWNGQPAENYKNTQPIMDTDGSYFVYSKLNVQKSNWEAGNTFTCSVLHEGLHNHHTEKSLSHSPGK
light: DIQMTQTTSSLSASLGDRVTISCRGSQDIQNYVNWYQQKPDGTIKLLIYYTSRLQSGIPSRFSGSGSGTDYSLTIANLEQEDIATYFCQQDDTIPVTYGAGTKVELKRADAAPTVSIFPPSSEQLTSGGASVVCFLNNFYPKDINVKWKIDGSERQNGVLNSWTDQDSKDSTYSMSSTLTLTKDEYERHNSYTCEATHKTSTSPIVKSFNRNEC
B5: Mutation 4 (antibody)
heavy: B4 heavy with A34W, D60K, Q106E
light: B4 light with G25L, Y50S, Y98E
B6: Mutation 5 (antibody)
heavy: B4 heavy with A34S, D60Y, Q106K
light: B4 light with G25I, Y50P, Y98R
B7: Mutation 1-14 (antibody, V domains shown)
VH: B1 VH with D27E, L34I, V51L, D60N, I99V, L100I, P106F
VL: B1 VL with G25A, V33L, F50Y, Q55H, I58L, I94V, V96L, W98F
notes: Mutation 1 background; CDRs built
B8: Mutation 1-15 (antibody, V domains shown)
VH: QVQLQQPGAELVKPGASVRLSCQTSVETFTTYYIYWVKQRPGEGLEWIGGVNPTSGGPVFNEKFKSKATLTVDTSSSTAYMQLSSLTSVDSAVYYCTRSLLRRGYYFDYWGQGTALTVSS
VL: B1 VL with G25A, Q30N, V33L, F50Y, Q55N, I94L, W98F
notes: as for B7
B9: WT 1-1 (antibody, V domains shown)
VH: B1 VH with S30T, V51I, L100V
VL: B1 VL with Q30N, I58V, V96I
notes: WT background; CDRs built
B10: WT 1-2 (antibody, V domains shown)
VH: B1 VH with D27E, V51L, L100I
VL: B1 VL with V33L, I58L, V96L
notes: WT background; CDRs built
B11: WT 1-6 (antibody, V domains shown)
VH: B1 VH with I99L
VL: B1 VL with Q55N, I94L
notes: WT background; CDRs built
B12: WT 1-7 (antibody, V domains shown)
VH: B1 VH with S30T, V51I, I99L, L100V
VL: B1 VL with Q30N, Q55N, I58V, I94L, V96I
notes: WT background; CDRs built
B13: WT 1-8 (antibody, V domains shown)
VH: B1 VH with D27E, V51L, I99L, L100I
VL: B1 VL with V33L, Q55N, I58L, I94L, V96L
notes: WT background; CDRs built
B14: WT 1-4 (antibody, V domains shown)
VH: B8 VH with E27N, T30S, I34L, V51I, N61D, L100V, L101V, F107P
VL: B1 VL with V33I, Q55H, I58V, I94V, V96I
notes: WT background; CDRs built
B15: WT 1-3 (antibody, V domains shown)
VH: B8 VH with I34L, N61D, L100V, F107P
VL: B1 VL with Q30N, V33L, Q55H, I94V
notes: WT background; CDRs built
B16: WT 1-5 (antibody, V domains shown)
VH: B8 VH with E27N, I34L, V51L, N61D, L100V, L101I, F107P
VL: B1 VL with Q30N, V33I, Q55H, I58L, I94V, V96L
notes: WT background; CDRs built
B17: WT 1-9 (antibody, V domains shown)
VH: B8 VH with I34L, N61D, L100I, F107P
VL: B1 VL with Q30N, V33L
notes: WT background; CDRs built

The binders below were run against T1, Taq DNA polymerase (Thermus aquaticus, UniProt P19821 1-832) (assay: ELISA on coated Taq, antibody 1.37 ng/ml).
T1 construct: also called Taq enzyme; Taq DNA enzyme
Description: (§1) The antibody activity was detected after mutation. Taq DNA enzyme was diluted with coating solution to the specified concentration, 100 μL per well overnight at 4° C.; which was washed twice with washing solution and patted dry on the next day; with addition of blocking solution (20% BSA+80% PBS), 120 μL per well at 37° C. for 1 h and patted dry; added the diluted Taq monoclonal antibodies, 100 μL/well at 37° C. for 30 min (partial supernatant for 1 h); washed 5 times with washing solution and patted dry; added goat anti-mouse IgG-HRP at 100 μL per well at 37° C. for 30 min; washed 5 times with washing solution and patted dry; added color developing solution A (50 μL/well), added color developing solution B (50 μL/well) for 10 min; added stop solution, 50 μL/well; followed by reading the OD value at 450 nm (reference 630 nm) on the microplate reader.

T1 sequence (P19821 whole entry): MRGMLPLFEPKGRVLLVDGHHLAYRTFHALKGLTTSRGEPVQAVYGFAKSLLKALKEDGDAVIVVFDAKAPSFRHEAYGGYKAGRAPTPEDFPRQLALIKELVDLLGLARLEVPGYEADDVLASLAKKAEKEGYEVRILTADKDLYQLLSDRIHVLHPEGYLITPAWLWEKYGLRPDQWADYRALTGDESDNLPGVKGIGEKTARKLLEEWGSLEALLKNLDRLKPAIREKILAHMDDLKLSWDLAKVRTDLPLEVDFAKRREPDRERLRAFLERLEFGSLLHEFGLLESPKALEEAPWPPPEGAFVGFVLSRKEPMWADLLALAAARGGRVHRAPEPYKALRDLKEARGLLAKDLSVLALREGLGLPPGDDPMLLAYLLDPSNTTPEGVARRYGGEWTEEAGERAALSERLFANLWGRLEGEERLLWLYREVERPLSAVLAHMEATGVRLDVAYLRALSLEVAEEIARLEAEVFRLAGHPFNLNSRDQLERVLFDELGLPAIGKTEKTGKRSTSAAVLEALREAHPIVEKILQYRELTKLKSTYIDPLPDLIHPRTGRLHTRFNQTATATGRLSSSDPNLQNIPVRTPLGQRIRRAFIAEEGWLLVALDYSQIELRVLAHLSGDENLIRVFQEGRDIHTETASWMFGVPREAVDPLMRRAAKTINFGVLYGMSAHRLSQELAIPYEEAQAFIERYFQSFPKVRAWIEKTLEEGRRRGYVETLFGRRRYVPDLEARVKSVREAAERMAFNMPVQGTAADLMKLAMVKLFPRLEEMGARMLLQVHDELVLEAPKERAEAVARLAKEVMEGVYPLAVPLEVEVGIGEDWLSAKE

**Q.** For B1, which “OD 450 nm” value is on record?
**A.** 0.798 OD

**Q.** B2 was tested. Which “OD 450 nm” value did it give?
**A.** 0.887 OD

**Q.** With B3 as the binder, how does the “OD 450 nm” value read?
**A.** 0.514 OD

**Q.** Which “OD 450 nm” value does the source give for B4 here?
**A.** 0.067 OD

**Q.** Which “OD 450 nm” value does the source give for B5 here?
**A.** 0.057 OD

**Q.** With B6 as the binder, how does the “OD 450 nm” value read?
**A.** 0.054 OD

What follows are binders tested against T1, Taq DNA polymerase (assay: AMC sensor, antibody immobilised).

**Q.** With B2 as the binder, how does the Kd read?
**A.** 0.384 nM

**Q.** What about the koff of the same binder?
**A.** 3.78e-05 s⁻¹

**Q.** And the kon?
**A.** 98300 M⁻¹ s⁻¹

**Q.** Which results are given for B7?
**A.** Kd: 0.229 nM; koff: 1.92e-05 s⁻¹; kon: 84100 M⁻¹ s⁻¹

**Q.** B8 was tested. Which Kd did it give?
**A.** 0.12 nM

**Q.** And the koff?
**A.** 5.72e-06 s⁻¹

**Q.** And the kon?
**A.** 47600 M⁻¹ s⁻¹

The binders below were run against T1, Taq DNA polymerase (assay: ELISA on coated Taq, antibody 37.04 ng/ml).
Description: as §1

**Q.** For B1, which “OD 450 nm” value is on record?
**A.** 2.3 OD

**Q.** Which “OD 450 nm” value does the source give for B2 here?
**A.** 2.38 OD

**Q.** With B3 as the binder, how does the “OD 450 nm” value read?
**A.** 2.05 OD

**Q.** For B4, which “OD 450 nm” value is on record?
**A.** 1.78 OD

**Q.** With B5 as the binder, how does the “OD 450 nm” value read?
**A.** 1.38 OD

**Q.** For B6, which “OD 450 nm” value is on record?
**A.** 1.41 OD

Target: T1, Taq DNA polymerase
Assay: AMC sensor, antibody immobilised
Remark: another data set of the same source

**Q.** What does the source list for B1?
**A.** Kd: 2.46 nM; koff: 0.000145 s⁻¹; kon: 59000 M⁻¹ s⁻¹

**Q.** Which Kd does the source give for B2 here?
**A.** 0.384 nM

**Q.** What about the koff of the same binder?
**A.** 3.78e-05 s⁻¹

**Q.** What about the kon of the same binder?
**A.** 98300 M⁻¹ s⁻¹

**Q.** With B3 as the binder, how does the Kd read?
**A.** 0.99 nM

**Q.** What about the koff of the same binder?
**A.** 5.87e-05 s⁻¹

**Q.** And the kon?
**A.** 59200 M⁻¹ s⁻¹

**Q.** With B4 as the binder, how does the Kd read?
**A.** 20.7 nM

**Q.** And the koff?
**A.** 0.00135 s⁻¹

**Q.** And the kon?
**A.** 65500 M⁻¹ s⁻¹

The binders below were run against T1, Taq DNA polymerase (assay: ELISA on coated Taq, antibody 0.46 ng/ml).
Description: as §1

**Q.** How did the “OD 450 nm” value turn out when B1 was run?
**A.** 0.399 OD

**Q.** With B2 as the binder, how does the “OD 450 nm” value read?
**A.** 0.442 OD

**Q.** B3 was tested. Which “OD 450 nm” value did it give?
**A.** 0.059 OD

What follows are binders tested against T1, Taq DNA polymerase (assay: ELISA on coated Taq, antibody 0 ng/ml (blank)).
Description: as §1

**Q.** How did the “OD 450 nm” value turn out when B1 was run?
**A.** 0.035 OD

**Q.** With B2 as the binder, how does the “OD 450 nm” value read?
**A.** 0.047 OD

**Q.** For B3, which “OD 450 nm” value is on record?
**A.** 0.05 OD

These binders were tested against T1, Taq DNA polymerase (assay: ELISA on coated Taq, antibody 4.12 ng/ml).
Description: as §1

**Q.** For B1, which “OD 450 nm” value is on record?
**A.** 1.58 OD

**Q.** Which “OD 450 nm” value does the source give for B2 here?
**A.** 1.7 OD

**Q.** How did the “OD 450 nm” value turn out when B3 was run?
**A.** 1 OD

**Q.** Which “OD 450 nm” value does the source give for B4 here?
**A.** 0.45 OD

**Q.** Which “OD 450 nm” value does the source give for B5 here?
**A.** 0.354 OD

**Q.** B6 was tested. Which “OD 450 nm” value did it give?
**A.** 0.362 OD

Target: T1, Taq DNA polymerase
Assay: AMC sensor, antibody immobilised
Remark: another data set of the same source

**Q.** B1 was tested. Which Kd did it give?
**A.** 2.46 nM

**Q.** And the koff?
**A.** 0.000145 s⁻¹

**Q.** And the kon?
**A.** 59000 M⁻¹ s⁻¹

**Q.** Which Kd does the source give for B9 here?
**A.** 4.65 nM

**Q.** And the koff?
**A.** 0.000273 s⁻¹

**Q.** What about the kon of the same binder?
**A.** 58800 M⁻¹ s⁻¹

**Q.** With B10 as the binder, how does the Kd read?
**A.** 3.41 nM

**Q.** And the koff?
**A.** 0.000166 s⁻¹

**Q.** What about the kon of the same binder?
**A.** 48500 M⁻¹ s⁻¹

**Q.** B11 was tested. Which Kd did it give?
**A.** 6.65 nM

**Q.** What about the koff of the same binder?
**A.** 0.000506 s⁻¹

**Q.** What about the kon of the same binder?
**A.** 76100 M⁻¹ s⁻¹

**Q.** With B12 as the binder, how does the Kd read?
**A.** 3.42 nM

**Q.** What about the koff of the same binder?
**A.** 0.000296 s⁻¹

**Q.** And the kon?
**A.** 86700 M⁻¹ s⁻¹

**Q.** How did the Kd turn out when B13 was run?
**A.** 3.02 nM

**Q.** What about the koff of the same binder?
**A.** 9.85e-05 s⁻¹

**Q.** And the kon?
**A.** 32600 M⁻¹ s⁻¹

**Q.** With B14 as the binder, how does the Kd read?
**A.** 4.1 nM

**Q.** And the koff?
**A.** 0.000362 s⁻¹

**Q.** What about the kon of the same binder?
**A.** 88400 M⁻¹ s⁻¹

**Q.** How did the Kd turn out when B15 was run?
**A.** 2.3 nM

**Q.** What about the koff of the same binder?
**A.** 0.00011 s⁻¹

**Q.** And the kon?
**A.** 48000 M⁻¹ s⁻¹

**Q.** How did the Kd turn out when B16 was run?
**A.** 5.13 nM

**Q.** What about the koff of the same binder?
**A.** 0.000314 s⁻¹

**Q.** What about the kon of the same binder?
**A.** 61200 M⁻¹ s⁻¹

**Q.** With B17 as the binder, how does the Kd read?
**A.** 8.57 nM

**Q.** And the koff?
**A.** 0.000433 s⁻¹

**Q.** And the kon?
**A.** 50500 M⁻¹ s⁻¹

Each binder was assayed against T1, Taq DNA polymerase (assay: ELISA on coated Taq, antibody 12.35 ng/ml).
Description: as §1

**Q.** Which “OD 450 nm” value does the source give for B1 here?
**A.** 2.1 OD

**Q.** For B2, which “OD 450 nm” value is on record?
**A.** 2.14 OD

**Q.** B3 was tested. Which “OD 450 nm” value did it give?
**A.** 1.84 OD

**Q.** With B4 as the binder, how does the “OD 450 nm” value read?
**A.** 0.874 OD

**Q.** With B5 as the binder, how does the “OD 450 nm” value read?
**A.** 0.679 OD

**Q.** With B6 as the binder, how does the “OD 450 nm” value read?
**A.** 0.701 OD
